Source: the DeepSol protein solubility set

Assay: soluble on expression in E. coli; label from the status in PepcDB or PDB records

| Sequence | soluble on expression in E. coli |
| --- | --- |
| MGSDKIHHHHHHEVRSTFINFFREKKEHTYVHSSSVIPHDDPTLLFANAGMNQFKPLFLGIADPNSDLAKLKRAVNTQKCIRAGGKHNDLDDVGKDVYHHTYFEMLGNWSFGDYFKKEIITWAWELLTTVYGIPAERLYVSVFGGDEANGVPADSEARDIWRSVGVPDERILNFGMKDNFWEMGDVGPCGPCSEIHYDRIGNRDASHLVNADDPMVVEIWNLVFIQFNREEGGVLKPLPAKHIDCGLGLERLIAVMQDKTSNYDTDIFQPIFEAIHKGSGVRAYTGFIGDEDKDGVDMAYRVVADHVRTLTIALSDGGRPDNSGRGYVLRRILRRGVRYASEKLNAQPGFFASLVPVVISILGETFPELSRDPVTVMDIINDEEKQFLKTLSRGRVLFQRAVQSLPEGTMTFPGDVSWRLYDTYGFPADLTQLMAEEKGLSVDNTAFEEARRKAIETSSAGTGKFRDTLDLDVHALAELQQKGVPTTDDSPKYAYTFTGEGSDAVYKFEPCVGKILAIRRDGKFVDQLAAGEEGAILLDRTNFYAEQGGQIYDVGVLTKVNDESNEFNVSNCQVRGGYIVLVGSAEGSFSVGDQVNERFDEDRKQLIMKNHTGTHVLNYALRKVLADSDQKGSLVAPDRMRFDFTNKAGMTVQQVKKAEEYAQQLIDTKGQVYAKNSPLGEAKKVKGLRAMFDETYPDPVRVVAVGTPVEQLLQNPDAEEGQNTTVEFCGGTHLQNVSHIGRIVIASEEAIAKGIRRIVALTGPEAER | not soluble |
| MVFKMMYSEAILDYANSKKFRGKLDDATVIEEGKNISCGDEITLYLKVEDGVVKDAKFEGMGCVISQASASLMLERIIGERVEEIFSLIEEAEKMSRGENFDEGKLKNVTLMSDIKNYPARVKCFILAWKTLKEALKKISRP | soluble |
| QVAKNPAPQAVEQAQSSSSLPAPSFADELDPVPGQQQASAKTITVTTDVLTLSIDTVGGDVVHADLNQYSAELDSSDPFVLLKDTQGHQFIAQSGLVGPQGIDLSSSNRPHYNVSADSFTLADGQDELRVPMTFTANGIEYTKTYVLKRGSYALNVEYDVANNSGNNATFGMYAHLRQNLMDAGGSITMPTYRGGAYSTEDTRYKKYSFEDMQDRNLSINLADGQGWAAMIQHYFAAAWIPRNEPGTNLYTRVIGNLGDIGVRMPNKTIATGDQAKFEATLWVGPKLQQEMAAVAPNLDLVVDYGWLWFIAKPLHS | not soluble |
| GYMDLMPFINKAGCECLNESDEHGFDNCLRKDTTFLESDCDEQLLITVAFNQPVKLYSMKFQGPDNGQGPKYVKIFINLPRSMDFEEAERSEPTQALELTEDDIKEDGIVPLRYVKFQNVNSVTIFVQSNQGEEETTRISYFTFIGTPVQATNMNDFK | soluble |
| MKQFLITGGTGMVGSQLVNKLKNRDVHITILTRSDKQSDDPKISYVNWSKDGWMSQVPDIDVVVNLAGATLNKRWTPSYKQLIMTSRIQSTQSLVDLFSQREHKPEVLFNASAMGYYPPSLYHTYTEKYQTHPFDFLSDVVYQWERFAKRFESFGTRVVLGRFSMILSNDGGALQTMKLPYKFFVGGKLGSGFQWYSWIHINDLVRAILFTIDNPNAKGPFNMAAPIAERQNLFGYTLARVMHRPHETWVPSFLMRLALGEMSTVVLDTQKVLPNKLDALGFTFNYSNLKIAFEDLIDALEHHHHHH | not soluble |
| MIPKAFDGVKLLQFSDLHLGHYDSLERFYRIINQINKLQPDIVVFTGDLLHEANRYPHTEEVADALASIRAPLGKFSVYGNHDHGGYGTDIYRRLMERAGFRVLVNEHALVRRGQERIAVAGGDDMMLGQPDWAKMTSGIPASTYTIALVHEPDGALETCRYPIHVQLSGHSHGGQIQLPFIGPLITPPLSERYYEGFYHVGGLVLYVNRGLGTTRVPLRFFAPPELTVFSLIHRLEHHHHHH | not soluble |
| MGHHHHHHGGHMSLITVMNRIGVKPEFAAQFEESFRNRAGLVDGMPGFIRNEVLKPTKPGDPYIVLTYWQDEPSFRAWTESDEFKQGHARSGSLPHDAFTGRPVLEVHDVLLSSDNEGGS | soluble |
| MASPAAGDVLIVGSGLVGRSWAMLFASGGFRVKLYDIEPRQITGALENIRKEMKSLQQSGSLKGSLSAEEQLSLISSCTNLAEAVEGVVHIQECVPENLDLKRKIFAQLDSIVDDRVVLSSSSSCLLPSKLFTGLAHVKQCIVAHPVNPPYYIPLVELVPHPETSPATVDRTHALMRKIGQSPVRVLKEIDGFVLNRLQYAIISEAWRLVEEGIVSPSDLDLVMSDGLGMRYAFIGPLETMHLNAEGMLSYSDRYSEGMKRVLKSFGSIPEFSGATVEKVNQAMCKKGPADPEHLAARREWRDECLKRELAKLKRQMQPQ | soluble |
| MAHHHHHHMDAVKRHSQSTWPVSMPPLHAGTQEERMTGEEAGSSTKHTEGTNDRREKHRHGPHPGRRLHTSPHTHTHHRSAVSLRVRGFGPPHNKRTHRQQLTTNDKEEKRHTAATVSSSVPRPTGYGHSPAANTQHARSKLSHKVPHAEAGPHPPMTRRLTPCGHTECTDSPIERIRRPSLKAASVIDGP | soluble |
| GMDQESNATSQDILKQHAAHYESDMGGLPEALVQLAEYAPETFDAYSRMRTTMLKSEADGAKLPLKYKHLILVVLDAIRDEPIGIVNHTRAAMNAGLSVDELIEGILLGIIVYGMPAWGKTGRKAVTFAVEFEKELAGKRT | soluble |
| NGFDREMRTRILGMVPQATVESYQPIDDWRALAEKVKAHEHVTAVAPFTQMQGMLSANGAVQTVMVDAVDPLEEAKVSIIPDFFKQGSLAELKAGGFGIVIGQLAAQKLGVGIGDKVTLILPEVAVTPAGVFPRMKRFTVVGTFRVGAGELDGGLSLIHLEDAARLQRWKTNQVQGLRLKLDDLFQAPRVAWEIARTLTDNDFYARDWTRSHGNLYQAIRMEKT | not soluble |
| MCIAIPGKMTAIVDENTATIDMGGICRDVNMALMGGAEESMIGKHFLVHVGYAISEISEEESEETMRLLKIMAGLEEIDSFE | soluble |
| AGALWEIEKELFTKLPAPSSAINSHLQPAKPKVPQKKPSKWDPPAEFKVDLSTAVSYNDIGDINWKNLQQFKGIERSEKGTEGLFFVETESGVFIVKRSTNIESETFCSLLCMRLGLHAPKVRVVSSNSEEGTNMLECLAAIDKSFRVITTLANQANILLMELVRGITLNKLTTTSAPEVLTKSTMQQLGSLMALDVIVNNSDRLPIAWTNEGNLDNIMLSERGATVVPIDSKIIPLDASHPHGERVRELLRTLIAHPGHESSQFHSIRDIITLYTGYDVGTEGSISMQEGFLATVRECASFDLDAFERELLSWQESLQKCHNLSISPQAIPFILRMLRIFH | soluble |
| DPAVTYYRLEEVAKRNTAEETWMVIHGRVYDITRFLSEHPGGEEILLEQAGADATESFEDIGHSPDAREMLKQYYIGDVHPNDLKP | soluble |
| LIEGSERLSGLTDVDEVIKDLSRLLRKLVKTRWIAVYFFDRERRDFAPARSTGLPASFLPVFREMPLAPDKIPLLKSMLRKRQHLMLTDPGSSDLLTPKLRKLLRNLCVLAVPMVVRTQVIGAVFMARTRDNPPFSDAETAIIRDLVSHAALVVSHMQLFDE | soluble |
| LMRSPKQKQLEVDHANKTNLKPKAIVNCDLFQLGDYCVFTFKKLSFKQRFKQDFFARSKFSFRS | soluble |
| SLLKLAIPKGRLEEKVMTYLKKTGVIFERESSILREGKDIVCFMVRPFDVPTYLVHGVADIGFCGTDVLLEKETSLIQPFFIPTNISRMVLAGPKGRGIPEGEKRIATKFPNVTQRYCESKGWHCRIIPLKGSVELAPIAGLSDLIVDITETGRTLKENNLEILDEIFVIRTHVVVNPVSYRTKREEVVSFLEKLQEVIEHDSNEQSRGEGGSHHHHHH | soluble |
| MRILLIEDDMLIGDGIKTGLSKMGFSVDWFTQGRQGKEALYSAPYDAVILDLTLPGMDGRDILREWREKGQREPVLILTARDALAERVEGLRLGADDYLCKPFALIEVAARLEALMRRTNGQASNELRHGNVMLDPGKRIATLAGEPLTLKPKEFALLELLMRNAGRVLSRKLIEEKLYTWDEEVTSNAVEVHVHHLRRKLGSDFIRTVHGIGYTLGEK | soluble |
| MVLWVFGYGSLIWNPGFDFDEKLIGYIKDYKRVFDLACIDHRGTPEHPARTCTLEQSTGAICWGAAYCVRGGPEKEKLAMEYLERRECEYDSKTLVEFYTENDTSTPIVTGVIVFTSTPDKVSNKYYLGPAPLEEMARQIATASGPCGNNREYLFKLEKAMFDIEHEEEYVIELANEVRKQLDLPEEVKALLKPIVSHVSVKSQAHVSTRQRVFAS | soluble |
